Assay: soluble on expression in E. coli; label from the status in PepcDB or PDB records

Question: For “MDIMQGPSESFVDFANRLIKAVEGSDLPPSARAPVIIDCFRQKSQPDIQQLIRTAPSTLTTPGEIIKYVLDRQKTAPLTDQGIAAAMSSAIQPLIM”, which “soluble on expression in E. coli” value is on record?
Answer: soluble

Question: For “MDIRPARISDLTGMQNCNLHNLPENYQLKYYLYHAISWPMLSYVATDPKGRVVGYVLAKMEEEPKDGIPHGHITSVSVMRSYRHLGLAKRLMVQSQRAMVEVYGAKYMSLHVRKSNRAAIHLYRDTLQFDVQGIESKYYADGEDAYAMHKDFSTLKFDTPETNDELAKTVQSLALNN”, which “soluble on expression in E. coli” value is on record?
Answer: soluble

Question: Which “soluble on expression in E. coli” value does the source give for “MDISVVVPTLNGREELTGCLDALTEQVPDAEVIVVNGPSADGTTGMVRDRDDVSLLVEIADRSVTVARNAGIDRATGDVIALVHQSLSVESGWADAVKDGLSGAAQAITGPTHQQLWAGMTTETEETRTIAGRDVTYFNPGNVAFDAEVVEALDGFDEYLNVGSARDFAHRMAAGEYGVDWSTEMCVSREFEADGGIAETDWNWKYRSLAYRLVKNYNVRPTVVRRILSHAVGDAKDALFDVVRGETTPSQWLGTGQDVFGGVGSGIVDGVRARVTDRTARRNPNGRSARTNRAVTVYDWRLEHHHHHH” here?
Answer: not soluble

Question: For “MDIWYGTAAVPKDLDNSAVTIGVFDGVHRGHQKLINATVEKAREVGAKAIMVTFDPHPVSVFLPRRAPLGITTLAERFALAESFGIDGVLVIDFTRELSGTSPEKYVEFLLEDTLHASHVVVGANFTFGENAAGTADSLRQICQSRLTVDVIDLLDDEGVRISSTTVREFLSEGDVARANWALGRHFYVTGPVVRGAGRGGKELGFPTANQYFHDTVALPADGVYAGWLTILPTEAPVSGNMEPEVAYAAAISVGTNPTFGDEQRSVESFVLDRDADLYGHDVKVEFVDHVRAMEKFDSVEQLLEVMAKDVQKTRTLLAQDVQAHKMAPETYFLQAES”, which “soluble on expression in E. coli” value is on record?
Answer: soluble

Question: For “MDIYERQVRVEAPLAEVWKFHATGDGLVALTPDWMNIRIEAERGPDGEPNPDELTAGSVVESSIKPFGVPPRQQWVSNIVAREEGEDEAMFRDVMEEGPFPHWEHTHTFRALSDRETLVHDHVEFELPGGPLGRALGPFGCLGMEPMFRYRHQQTKKLLEGLEHHHHHH”, which “soluble on expression in E. coli” value is on record?
Answer: not soluble

Question: For “MDIYVCTVCGYEYDPAKGDPDSGIKPGTKFEDLPDDWACPVCGASKDAFEKQ”, which “soluble on expression in E. coli” value is on record?
Answer: soluble

Question: With “MDKKSKLINLLKEVGCIRFGEFILASGKKSNYYIDIKKATTNPEILKLVGEIIAEQIKDEDVKVAGVELGSVPIATAVSIIAQKPLLIVRKKPKDYGTKNKIEGELKEGDKVVIVEDVTTTGGSVLKAVKEIRENGGIVDKVFVVVDRLEGAKENLQKENVELIPLVTVKELQSTQ” as the sequence, how does the “soluble on expression in E. coli” value read?
Answer: soluble

Question: Which “soluble on expression in E. coli” value does the source give for “MDKLNKITVPASQKLRQLQKMVHDIKNNEGGIMDKIKKLKVKGPPSVPRRDYALDSPADEEEQWSDDFDSDYENPDEHSDSEMYVMPAEETGDDSYEPPPAEQQTRVVHPALPFTRGEYVDNRSSQRHSPPFSKTLPSKPSWPSAKARLASTLPAPNSLQKPQVPPKPKDLLEDEADYVVPVEDNDENYIHPRESSPPPAEKAPMVNRSTKPNSSSKHMSPPGTVAGRNSGVWDSKSSLPAAPSPLPRAGKKPATPLKTTPVPPLPNASNVCEEKPVPAERHRGSSHRQDTVQSPVFPPTQKPVHQKPVPLPRFPEAGSPAADGPFHSFPFNSTFADQEAELLGKPWYAGACDRKSAEEALHRSNKDGSFLIRKSSGHDSKQPYTLVAFFNKRVYNIPVRFIEATKQYALGKKKNGEEYFGSVVEIVNSHQHNPLVLIDSQNNTKDSTRLKYAVKVS” here?
Answer: soluble

Question: Which “soluble on expression in E. coli” value does the source give for “MDKQLEAARKFLKDNVRQMVDFSQTAQNRRVPPPPIEKPMPEEAKTIPLPVIGKAKSAGNIDLWSAIGQRESCRFYADEPMSLDELSLLLWATQGVRLKLDAGHALRTVPSAGCRHAFETYLCVLNVESLDKGIYRYLPLEHALLCSHAPEKLESRIVRATLGQRFTGDAAVVFVWTAIPYRMEWRYGLAAHKVIALDAGHVCQNLYLACEAIGAGTCAIAAYDQDEMDRLLDVDGEEEFTIYLAPVGKKG” here?
Answer: not soluble

Question: Which “soluble on expression in E. coli” value does the source give for “MDKVYLTWWQVDRAIFALAEKLREYKPDVIIGVARGGLIPAVRLSHILGDIPLKVIDVKFYKGIDERGEKPVITIPIHGDLKDKRVVIVDDVSDTGKTLEVVIEEVKKLGAKEIKIACLAMKPWTSVVPDYYVFRTEKWIVFPWEEFPVIEKE” here?
Answer: soluble

Question: Which “soluble on expression in E. coli” value does the source give for “MDLELEPTLESIVQHDSLKWIFVGGKGGVGKTTTSSSVAVQLALAQPNEQFLLISTDPAHNLSDAFCQKFGKDARKVEGLPNLSCMEIDPEAAMSDLQQQASQYNNDPNDPLKSMMSDMTGSIPGIDEALSFMEVLKHIKNQKVLEGEDNSNAISYKTIIFDTAPTGHTLRFLQLPSTLEKLLSKFKDLSGKLGPMLSMMGGGQQQDIFEKLNEVQKNVSEVNEQFTNPELTTFICVCISEFLSLYETERMIQELMSYNMDVNSIVVNQLLFAEGDDHSCKRCESRWKMQKKYLDQMGELYEDYHLVKMPLLGCEIRGVENLKKFSKFLLKPYDPKADSDIVFDLEEK” here?
Answer: soluble

Question: For “MDLFIKKRIKAIQKGDQNAYADLVDLYKDKIYRLCYRMLGNRHEAEDAAQEAFIRAYIHIDTYNPEMKFSTWLYRIATNLTIDKLRKRKPDVYLDEEVGGTDGLTMQAQLPSREASPEEAVESLELQETVQRAIEQLPEKYRSVIVLKYMEDLSLQEISEILGLPVGTVKTRLHRGREALRRQLGHL”, which “soluble on expression in E. coli” value is on record?
Answer: not soluble

Question: With “MDLIHEKVFVNRYHYDVRNHEWEKENGVPKTNVEVTFQLHHKDKEANNTSVVAVLQFMIVRDEFVISGIVSQMNHIQNRIVNNPKDFSQEEAEYLAAPLLDTLQRLTYEVTEIALDRPGINLEF” as the sequence, how does the “soluble on expression in E. coli” value read?
Answer: not soluble

Question: Which “soluble on expression in E. coli” value does the source give for “MDLLGKLFSRALKLSTLPTKKKRDAFSQQRKVLKKLLKKSANTQFGLRFNFYEILVQFSSGNKKVFYDFYKRRVPVYTYNTLYNEWWYRLKEGEADVTWPGKVQYFALSSGTSDASTKYIPITEQFLKANKKIGIRQLLSLAHYKLPKDLLGKGILMLGGSTHLHKTETYYEGDLSGIQASKIPFWFQYFYKPGSRIARNRDWESKLNDIVESAPDWDIGFIVGVPAWLQILLERIIARYQLKTIHDIWPNLTVFVHGGVAFDPYRKGFEKLLAKPIIYIETYLASEGFIAYQAGPGRKGMKLILDNGIFFEFVPFNEQNINASGDIVVNPKTLMIHEVEEGVDYVLLVSTCAGTWRYMIGDVIRFVDKAQAEIIITGRTKHFISLCGEHLSVDNMNQAIKLVAEELNIIIKEFTVSGIAHDTLFAHQWYIGTDHVIDPVVVSDLLDEKLKLLNDDYRVERTSALKEIFVTILPSQSFYDWMRYRGKEGGQNKFPRVLNKKLHEDWKAFLNQ” here?
Answer: not soluble

Question: For “MDLNFDLYMNDVVEQARNEIEHAGYQQLTSAEDVDQVLQQKGTSLVMVNSVCGCAGGIARPAAAHALHYDKLPQRLVTVFAGQDKEATQQAREYFEGYAPSSPSFALIKDGKITEMIERHQIEGHDVMDVINQLQALFDKYCEER”, which “soluble on expression in E. coli” value is on record?
Answer: not soluble

Question: Which “soluble on expression in E. coli” value does the source give for “MDLQSTPLKGVVRSSEDGLFYLFPIQSLSTLQEMKGHLTCAIDVLSNPDESDVEKRLDAVRTLNSLVAALSVNDGDHYDVIDTAFEEIRE” here?
Answer: not soluble

Question: With “MDLSGVKKKSLLGVKENNKKSSTRAPSPTKRKDRSDEKSKDRSKDKGATKESSEKDRGRDKTRKRRSASSGSSSTRSRSSSTSSSGSSTSTGSSSGSSSSSASSRSGSSSTSRSSSSSSSSGSPSPSRRRHDNRRRSRSKSKPPKRDEKERKRRSPSPKPTKVHIGRLTRNVTKDHIMEIFSTYGKIKMIDMPVERMHPHLSKGYAYVEFENPDEAEKALKHMDGGQIDGQEITATAVLAPWPRPPPRRFSPPRRMLPPPPMWRRSPPRMRRRSRSPRRRSPVRRRSRSPGRRRHRSRSSSNSSR” as the sequence, how does the “soluble on expression in E. coli” value read?
Answer: soluble

Question: For “MDMRSHEMIERRREDNGNNNGGVVISNIISTNIDDNCNGNNNNTRVSCNSQTLDHHQSKSPSSFSISAAAKPTVRYRECLKNHAASVGGSVHDGCGEFMPSGEEGTIEALRCAACDCHRNFHRKEMDGVGSSDLISHHRHHHYHHNQYGGGGGRRPPPPNMMLNPLMLPPPPNYQPIHHHKYGMSPPGGGGMVTPMSVAYGGGGGGAESSSEDLNLYGQSSGEGAGAAAGQMAFSMSSSKKRFRTKFTTDQKERMMDFAEKLGWRMNKQDEEELKRFCGEIGVKRQVFKVWMHNNKNNAKKPPTPTTTL”, which “soluble on expression in E. coli” value is on record?
Answer: not soluble

Question: With “MDMSKASQEQFSMFMNLLCITVKDMPITEYYTSYILWEEVEFLEGVKDLLDPTSAFEDRRSSLYHHLGHNFASNCSLKDDNNVRDAHVVVEDHTKFDNYMYDQMTRKEWTSLHL” as the sequence, how does the “soluble on expression in E. coli” value read?
Answer: soluble

Question: For “MDMTDQAFFKYVRNFNEYQKRSMFGGIGLFSDDAMFALVSNDCCYLRGGNGLDEEFTLLNCEKYKHVKKQTTATVNYYDVTDLFESGFTGLDDLLRKSIDCSIKERKYQKSSASKRLRDLPNMQLTLERMVKKAGIDDVETFLELGPVEVFNKVRVAYGNDVDVKLLWKFAGAIDGVHWKLIQEPRKKQLLALCE”, which “soluble on expression in E. coli” value is on record?
Answer: not soluble

Question: With “MDNGDWGYMMTDPVTLNVGGHLYTTSLTTLTRYPDSMLGAMFGGDFPTARDPQGNYFIDRDGPLFRYVLNFLRTSELTLPLDFKEFDLLRKEADFYQIEPLIQCLNDPKPLYPMDTFEEVVELSSTRKLSKYSNPVAVIITQLTITTKVHSLLEGISNYFTKWNKHMMDTRDCQVSFTFGPCDYHQEVSLRVHLMEYITKQGFTIRNTRVHHMSERANENTVEHNWTFCRLARKTDD” as the sequence, how does the “soluble on expression in E. coli” value read?
Answer: not soluble

Question: For “MDNHNKYSVRCQCGAVEVQLNNNPVVHAFCHCSDCRDLLNIPFHAVTAWNKNDAVIVKGEEELSIYKHPSLEMTRCFCKHCGETVFNTNVMDWRVISQLLISKCNNNEIPENLRSDKHFFYEQRVVDIQDELPKFSRGTDGPLYEDQH”, which “soluble on expression in E. coli” value is on record?
Answer: not soluble

Question: With “MDPFGTYKTAISARATDKAILKKSQDGGIISASYIYGLENGLLDGVIVANTEDGFKAAPKIATTPEEVLSAAGTKYTVSPNVSVLKDAVREYALEKVGIVGTPCQVRAIRKLMKYPMGFRHTDSKIALVMGIFCMENFPYEGMKAIVEQYAGIRMNDVLKTDIGKGKFWVYSKSGDVKAVPLKDTHMYEQKSCHVCMDYTAELADISTGSVGSPDGWSTIFVRTAKGEEYLNKMVEAGALETKPIDDVKPGLDLVQKLALQKKEKNDKEIAHRKEIGLPVPYLEHHHHHH” as the sequence, how does the “soluble on expression in E. coli” value read?
Answer: not soluble

Question: With “MDPSLLRERELFKKRALSTPVVEKRSASSESSSSSSKKKKTKVEHGGSSGSKQNSDHSNGSFNLKALSGSSGYKFGVLAKIVNYMKTRHQRGDTHPLTLDEILDETQHLDIGLKQKQWLMTEALVNNPKIEVIDGKYAFKPKYNVRDKKALLRLLDQHDQRGLGGILLEDIEEALPNSQKAVKALGDQILFVNRPDKKKILFFNDKSCQFSVDEEFQKLWRSVTVDSMDEEKIEEYLKRQGISSMQESGPKKVAPIQRRKKPASQKKRRFKTHNEHLAGVLKDYSDITSSK” as the sequence, how does the “soluble on expression in E. coli” value read?
Answer: not soluble

Question: For “MDPTETFARMNKVMHQTLKYVKEVESINFSSRGVIDFNGEVMEDHQRIFLSVCTSVFANFSFSCQMDVEKLLSFLMALFENYSKENAYHNALHAADSVQMLFLILREKPATLIFTENEVILAFLATLSLGFVHPGVSNAFLARIDHPLVLVYGDMTTQQSAGLTALLYLLNREENRFIDLFANSGTQPFSQFLREILVETVLGTAPRLRSSLLRDLEKVAVADAVELNDIPILLAAVVILADNALALRPHAQFVNLAGLMVTEWLREAYEEEQRGMDPLVPNLRKQIYENGLGMAVDYCKVWLRPLITNIRALVPQDLYDNMEGNTEAPSMSEIQDFLVHLDSSNERWNDGSVPVIDIIRRITMHATSLDRKASKRAILNAASN”, which “soluble on expression in E. coli” value is on record?
Answer: not soluble
